Measured values published in patent US20230312678A1.
Like-named read-outs stand apart in the source and are kept apart here.

Experiments:
[1] = target: ED-tagged full-length PD-1 receptor stably expressed in Jurkat cells (PathHunter PD-1 Signaling Bioassay, DiscoverX) (UniProt Q15116); assay: cell-based or functional assay
[2] = target: ED-tagged full-length PD-1 receptor stably expressed in Jurkat cells (PathHunter PD-1 Signaling Bioassay, DiscoverX) (UniProt Q15116); assay: cell-based or functional assay; remark: listed apart in the source

Sequence of UniProt Q15116 (Q15116 25-288): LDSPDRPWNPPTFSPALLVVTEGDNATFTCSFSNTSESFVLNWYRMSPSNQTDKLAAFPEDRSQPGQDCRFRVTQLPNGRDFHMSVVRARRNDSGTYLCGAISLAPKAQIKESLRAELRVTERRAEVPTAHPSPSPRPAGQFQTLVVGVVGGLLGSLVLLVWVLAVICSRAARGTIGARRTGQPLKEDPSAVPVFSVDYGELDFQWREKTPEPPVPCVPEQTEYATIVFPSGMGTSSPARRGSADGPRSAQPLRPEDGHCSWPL

Row | Substance | Relative Light Units (RLU), modified PathHunter PD-1 Signaling Bioassay; fold against soluble PD-L1-Fc [1] | Relative Light Units (RLU), modified PathHunter PD-1 Signaling Bioassay; fold against soluble PD-L1-Fc [2] | Relative Light Units (RLU), modified PathHunter PD-1 Signaling Bioassay; fold against soluble PD-L2-Fc [1] | Relative Light Units (RLU), modified PathHunter PD-1 Signaling Bioassay; fold against soluble PD-L2-Fc [2]
1 | hPD-L1-Fc-GPI artificial synapses engineered from exosomes (hPDL1-Fc-GPI fusion polypeptide displayed on the exosome surface) (Fc fusion) | 10000 fold | 1000 fold | – | –
2 | hPD-L2-Fc-GPI artificial synapses engineered from exosomes (hPDL2-Fc-GPI fusion polypeptide displayed on the exosome surface) (Fc fusion) | – | – | 10000 fold | 1000 fold
